Laboratory results published in publication PMC9482650, “Quantitative fragmentomics allow affinity mapping of interactomes” (Nature Communications, 2022).

T1: CARD11, Q9BXL7
T1 sequence (Q9BXL7 662-765, limits assumed, looked up): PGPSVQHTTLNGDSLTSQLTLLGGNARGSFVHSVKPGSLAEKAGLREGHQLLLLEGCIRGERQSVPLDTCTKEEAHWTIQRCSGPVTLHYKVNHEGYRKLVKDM

T2: DVL3, Q92997
T2 sequence (Q92997 244-331, limits assumed, looked up): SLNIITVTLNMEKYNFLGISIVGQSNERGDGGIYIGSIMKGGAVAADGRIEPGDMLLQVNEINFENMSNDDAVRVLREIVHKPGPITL

T3: GRIP1_3, Q9Y3R0
T3 sequence (Q9Y3R0 247-346, limits assumed, looked up): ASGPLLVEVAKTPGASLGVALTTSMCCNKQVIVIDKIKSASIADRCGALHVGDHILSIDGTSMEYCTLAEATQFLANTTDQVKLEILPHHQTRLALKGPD

T4: GRIP1_4, Q9Y3R0
T4 sequence (Q9Y3R0 467-571, limits assumed, looked up): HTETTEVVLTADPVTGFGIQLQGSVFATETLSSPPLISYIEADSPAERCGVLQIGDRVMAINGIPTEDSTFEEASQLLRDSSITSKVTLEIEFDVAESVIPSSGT

T5: GRIP1_7, Q9Y3R0
T5 sequence (Q9Y3R0 999-1096, limits assumed, looked up): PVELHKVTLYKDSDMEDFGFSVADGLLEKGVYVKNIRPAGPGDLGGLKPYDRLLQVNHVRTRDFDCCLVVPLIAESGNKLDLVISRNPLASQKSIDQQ

T6: LIN7A, O14910
T6 sequence (O14910 103-200, limits assumed, looked up): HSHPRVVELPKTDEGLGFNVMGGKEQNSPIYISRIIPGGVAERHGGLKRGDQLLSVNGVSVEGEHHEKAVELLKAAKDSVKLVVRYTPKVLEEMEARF

T7: MPP7, Q5T2T1
T7 sequence (Q5T2T1 134-230, limits assumed, looked up): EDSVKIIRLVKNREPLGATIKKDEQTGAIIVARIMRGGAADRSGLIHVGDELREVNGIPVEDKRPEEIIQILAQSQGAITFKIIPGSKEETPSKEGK

T8: PDZD7_3, Q9H5P4
T8 sequence (Q9H5P4 857-944, limits assumed, looked up): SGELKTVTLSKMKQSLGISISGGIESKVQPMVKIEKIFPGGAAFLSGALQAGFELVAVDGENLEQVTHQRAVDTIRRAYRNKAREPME

T9: SNTG2, Q9NY99
T9 sequence (Q9NY99 68-166, limits assumed, looked up): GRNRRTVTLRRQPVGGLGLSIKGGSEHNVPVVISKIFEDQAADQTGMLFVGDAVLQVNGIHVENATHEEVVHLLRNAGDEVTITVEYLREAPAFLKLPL

T10: SYNJ2BP, P57105
T10 sequence (P57105 8-110, limits assumed, looked up): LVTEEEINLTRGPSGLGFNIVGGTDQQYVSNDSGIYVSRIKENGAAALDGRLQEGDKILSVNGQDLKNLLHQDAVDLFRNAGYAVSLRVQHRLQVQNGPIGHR


Assays:
Test in all cases: holdup assay
Design in all cases: key: below the threshold = too weak to quantify, mostly under pKd 3.1 to 4
Conditions in all cases: plain residues with an end cap or a label only (N-terminal biotin on a linker: ado-ado)
[1] = target: T1, CARD11, Q9BXL7
[2] = target: DLG1_2, Q12959
DLG1_2, Q12959, sequence (Q12959 314-412): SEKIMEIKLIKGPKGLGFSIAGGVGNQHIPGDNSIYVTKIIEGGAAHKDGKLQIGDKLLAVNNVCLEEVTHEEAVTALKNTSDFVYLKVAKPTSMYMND

[3] = target: DLG4_2, P78352
DLG4_2, P78352, sequence (P78352 155-259): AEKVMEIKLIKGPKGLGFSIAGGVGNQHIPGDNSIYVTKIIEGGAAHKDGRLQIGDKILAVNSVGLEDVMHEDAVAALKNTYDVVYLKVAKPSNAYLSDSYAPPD

[4] = target: DLG4_3, P78352
DLG4_3, P78352, sequence (P78352 306-403): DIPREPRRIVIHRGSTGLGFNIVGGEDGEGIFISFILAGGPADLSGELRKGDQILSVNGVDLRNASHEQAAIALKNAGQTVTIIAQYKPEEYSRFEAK

[5] = target: T2, DVL3, Q92997
[6] = target: FRMPD2_1, Q68DX3
FRMPD2_1, Q68DX3, sequence (Q68DX3 770-861): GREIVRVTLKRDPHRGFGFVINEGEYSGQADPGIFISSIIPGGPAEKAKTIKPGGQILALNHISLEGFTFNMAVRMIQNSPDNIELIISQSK

[7] = target: FRMPD2_3, Q68DX3
FRMPD2_3, Q68DX3, sequence (Q68DX3 1073-1166): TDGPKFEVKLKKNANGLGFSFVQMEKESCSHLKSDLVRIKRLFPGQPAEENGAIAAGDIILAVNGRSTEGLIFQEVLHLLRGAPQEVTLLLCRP

[8] = target: GRID2IP_2, A4D2P6
GRID2IP_2, A4D2P6, sequence (A4D2P6 272-370): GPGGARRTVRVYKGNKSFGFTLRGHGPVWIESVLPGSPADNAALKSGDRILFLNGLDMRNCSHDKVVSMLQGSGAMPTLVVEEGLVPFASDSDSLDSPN

[9] = target: T3, GRIP1_3, Q9Y3R0
[10] = target: T4, GRIP1_4, Q9Y3R0
[11] = target: T5, GRIP1_7, Q9Y3R0
[12] = target: GRIP2_4, Q9C0E4
GRIP2_4, Q9C0E4, sequence (Q9C0E4 446-548): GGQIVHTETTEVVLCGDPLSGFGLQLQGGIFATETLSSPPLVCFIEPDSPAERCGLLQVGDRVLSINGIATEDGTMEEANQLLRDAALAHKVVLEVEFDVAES

[13] = target: GRIP2_7, Q9C0E4
GRIP2_7, Q9C0E4, sequence (Q9C0E4 934-1023): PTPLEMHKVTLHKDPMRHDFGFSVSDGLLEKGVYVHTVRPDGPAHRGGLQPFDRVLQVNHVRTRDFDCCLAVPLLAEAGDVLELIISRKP

[14] = target: HTRA2, O43464
HTRA2, O43464, sequence (O43464 355-458): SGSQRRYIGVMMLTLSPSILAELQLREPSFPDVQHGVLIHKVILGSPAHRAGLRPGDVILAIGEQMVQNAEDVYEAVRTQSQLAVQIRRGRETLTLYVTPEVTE

[15] = target: IL16_1, Q14005
IL16_1, Q14005, sequence (Q14005 210-306): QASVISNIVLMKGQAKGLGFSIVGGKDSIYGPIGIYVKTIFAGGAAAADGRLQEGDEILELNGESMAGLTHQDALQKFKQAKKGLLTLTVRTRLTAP

[16] = target: IL16_3, Q14005
IL16_3, Q14005, sequence (Q14005 1107-1207): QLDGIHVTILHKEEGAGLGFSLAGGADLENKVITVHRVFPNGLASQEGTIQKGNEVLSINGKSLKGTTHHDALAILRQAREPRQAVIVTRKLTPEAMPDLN

[17] = target: Inadl_2, Q8NI35
Inadl_2, Q8NI35, sequence (Q8NI35 238-335): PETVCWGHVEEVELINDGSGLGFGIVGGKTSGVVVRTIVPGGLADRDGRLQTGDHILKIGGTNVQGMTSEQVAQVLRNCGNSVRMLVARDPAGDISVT

[18] = target: T6, LIN7A, O14910
[19] = target: MAGI1_2, Q96QZ7
MAGI1_2, Q96QZ7, sequence (Q96QZ7 456-580): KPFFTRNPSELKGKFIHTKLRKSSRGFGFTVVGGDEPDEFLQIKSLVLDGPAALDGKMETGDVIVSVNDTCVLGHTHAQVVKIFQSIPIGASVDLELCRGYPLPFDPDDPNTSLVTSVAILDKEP

[20] = target: MAST1, Q9Y2H9
MAST1, Q9Y2H9, sequence (Q9Y2H9 962-1065): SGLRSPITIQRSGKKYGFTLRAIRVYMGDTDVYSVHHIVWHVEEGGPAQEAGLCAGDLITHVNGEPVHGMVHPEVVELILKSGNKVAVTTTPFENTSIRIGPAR

[21] = target: T7, MPP7, Q5T2T1
[22] = target: NHERF4_1, Q86UT5-2
NHERF4_1, Q86UT5-2, sequence (Q86UT5 other isoform, or with tags, fused parts or gaps): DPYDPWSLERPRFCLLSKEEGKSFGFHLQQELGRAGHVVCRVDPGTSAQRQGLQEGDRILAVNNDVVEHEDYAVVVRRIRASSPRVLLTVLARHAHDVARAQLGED

[23] = target: NHERF4_2, Q86UT5
NHERF4_2, Q86UT5, sequence (Q86UT5 220-308): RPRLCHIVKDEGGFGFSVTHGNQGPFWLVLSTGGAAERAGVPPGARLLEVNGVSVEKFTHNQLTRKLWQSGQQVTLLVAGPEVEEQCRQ

[24] = target: NHERF4_4, Q86UT5
NHERF4_4, Q86UT5, sequence (Q86UT5 464-550): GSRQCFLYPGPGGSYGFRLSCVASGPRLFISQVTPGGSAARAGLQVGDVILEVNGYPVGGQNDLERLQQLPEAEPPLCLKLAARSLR

[25] = target: T8, PDZD7_3, Q9H5P4
[26] = target: T9, SNTG2, Q9NY99
[27] = target: SNX27, Q96L92
[28] = target: T10, SYNJ2BP, P57105

pKd [1]	pKd [2]	pKd [3]	pKd [4]	pKd [5]	pKd [6]	pKd [7]	pKd [8]	pKd [9]	pKd [10]	pKd [11]	pKd [12]	pKd [13]	pKd [14]	pKd [15]	pKd [16]	pKd [17]	pKd [18]	pKd [19]	pKd [20]	Binder	also measured
below the threshold	5.17	4.92	4.24	below the threshold	3.6	3.62	3.53	below the threshold	below the threshold	below the threshold	below the threshold	below the threshold	below the threshold	3.76	below the threshold	below the threshold	3.85	4.2	below the threshold	TNSRHGETTV [FZD2, Q14332]	pKd [21]: below the threshold; pKd [22]: below the threshold; pKd [23]: below the threshold; pKd [24]: 3.92; pKd [25]: 4.26; pKd [26]: 4.29; pKd [27]: 5.64; pKd [28]: 5.08
below the threshold	5.43	5.2	4.12	below the threshold	below the threshold	below the threshold	3.8	below the threshold	below the threshold	below the threshold	below the threshold	below the threshold	below the threshold	below the threshold	below the threshold	below the threshold	below the threshold	4.76	4.29	ILRKSTTTTV [PRR16, Q569H4]	pKd [21]: below the threshold; pKd [22]: below the threshold; pKd [23]: below the threshold; pKd [24]: below the threshold; pKd [25]: 4.67; pKd [26]: below the threshold; pKd [27]: 5.15; pKd [28]: 4.2
below the threshold	4.68	4.53	below the threshold	below the threshold	below the threshold	below the threshold	4.66	below the threshold	below the threshold	below the threshold	below the threshold	below the threshold	below the threshold	4.17	below the threshold	below the threshold	below the threshold	4.09	4.13	ARESQKVSHV [FAM110B, Q8TC76]	pKd [21]: below the threshold; pKd [22]: 3.74; pKd [23]: below the threshold; pKd [24]: below the threshold; pKd [25]: 4.63; pKd [26]: 4.08; pKd [27]: 4.42; pKd [28]: 4.31
below the threshold	4.34	4.35	3.58	below the threshold	below the threshold	below the threshold	4.06	below the threshold	below the threshold	below the threshold	below the threshold	below the threshold	below the threshold	3.79	below the threshold	below the threshold	below the threshold	below the threshold	4.53	LESTTVGTSV [KARS1, Q15046]	pKd [21]: below the threshold; pKd [22]: below the threshold; pKd [23]: below the threshold; pKd [24]: below the threshold; pKd [25]: 3.82; pKd [26]: below the threshold; pKd [27]: 4.45; pKd [28]: 5.44
below the threshold	4.61	4.51	3.67	below the threshold	below the threshold	below the threshold	4.28	below the threshold	below the threshold	below the threshold	below the threshold	below the threshold	below the threshold	3.52	below the threshold	below the threshold	below the threshold	5.08	below the threshold	STKRKLASAV [NCF1, P14598]	pKd [21]: below the threshold; pKd [22]: below the threshold; pKd [23]: below the threshold; pKd [24]: below the threshold; pKd [25]: below the threshold; pKd [26]: below the threshold; pKd [27]: below the threshold; pKd [28]: 4.85
